Assay results reported in patent US20200317802A1 (Merck KGaA, published 2020).
Positions count from the first letter of the chain named.

T1: recombinant human ADAMTS5 (R&D Systems cat #2198-AD) (human, UniProt Q9UNA0 262-622, limits assumed)
T1 construct: bought protein
T1 sequence: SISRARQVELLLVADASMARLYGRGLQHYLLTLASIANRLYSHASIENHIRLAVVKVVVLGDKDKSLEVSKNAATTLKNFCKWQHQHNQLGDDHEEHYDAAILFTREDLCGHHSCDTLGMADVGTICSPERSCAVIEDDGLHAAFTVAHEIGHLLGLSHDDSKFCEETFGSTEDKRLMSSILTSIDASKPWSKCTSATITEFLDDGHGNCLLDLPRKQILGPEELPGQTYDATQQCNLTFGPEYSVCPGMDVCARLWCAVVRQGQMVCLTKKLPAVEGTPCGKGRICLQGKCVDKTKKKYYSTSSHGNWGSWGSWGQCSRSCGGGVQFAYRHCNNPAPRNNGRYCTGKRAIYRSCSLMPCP

B1: Nanobody 7B11 (VHH)
VHH: EVQLVESGGGLVQPGGSLRLSCAASGSIFSINVMGWYRQAPGKQRELVAAIISGGRTNYADSVKGRFTISRDNSKNTVYLQMNSLRPEDTAVYYCNAEVDAGIYAYGYWGQGTLVTVSS
notes: tagged as tested (anti-Flag detection, IMAC); also called 07B11
B2: Nanobody 3B03 (VHH)
VHH: EVQLVESGGDLVQPGGSLRLSCAASGSDVVVNDMGWYRQAPGKQRELVADITTGGRTNYADSVKGRFTISRDNVKNTVYLQMNSLKPEDTAVYYCNAQVGDSDDDVWYAYWGQGTLVTVSS
notes: tagged as tested (anti-Flag detection, IMAC); also called 03B03
B3: Nanobody 2D12 (VHH)
VHH: EVQLVESGGGLVQAGDSLRLSCAASGRTFSTYFVGWFRQAPGKERDFVAAISRNGARTYYYDSVAGLFTISRDNAKNTVYLQMSSLKPEDTAVYYCAAARISPSDPSNEDGYDYWGQGTLVTVSS
notes: tagged as tested (anti-Flag detection, IMAC); also called 02D12
B4: Nanobody 3F04 (VHH)
VHH: EVQLVESGGGSVQAGGSLRLSCVASGRYPMAWFRQAPGKEREFVAGVSWGGDRTYYADSVQGRFTVSRDYAKNTLYLQMNSLKPEDAAVYYCAGDPWGRLFRVKDNYSDWGQGTLVTVSS
notes: tagged as tested (anti-Flag detection, IMAC); also called 03F04
B5: Nanobody 2A02 (VHH)
VHH: EVQLVESGGGLVQPGGSLRLSCAASRRTFSSYVMAWFRQAPGKEREFVAAISRSGDSTYYYDSLEGRFTISRDNAKNTVHLQMNSLKPEDTAVYICAASRAPSFRTIDAINYYDYWGQGTLVTVSS
notes: tagged as tested (anti-Flag detection, IMAC); also called 02A02
B6: Nanobody 2G01 (VHH)
VHH: EVQLVESGGGLVQAGGSLRLSCAASGRTTFSSYAMGWFRQAPGKERAFVATIWSGGLTVYADSAKGRFTISRDNAKNTVYLQMNSLRPEDTAVYYCAAEAVGTYYTPDGWTYWGQGTLVTVSS
notes: tagged as tested (anti-Flag detection, IMAC); also called 02G01
B7: Nanobody 2C10 (VHH)
VHH: EVQLVESGGGLVQAGGSLRLSCATSGFTFSPYYMGWFRQAPGKERDFVAAITRSRGTTYYLDSTEGRFTISRDNAKNTMYLQMNSLNPEDTAVYYCAAGRSPGDPSRTYLYEYWGQGTLVTVSS
notes: tagged as tested (anti-Flag detection, IMAC); also called 02C10
B8: Nanobody 3D02 (VHH)
VHH: B7 VHH with G16A, T52S, R53W, T57I, T58L, L61T, N84D, S85N, G99S, E112D
notes: tagged as tested (anti-Flag detection, IMAC); also called 03D02
B9: Nanobody 9D10 (VHH)
VHH: EVQLVESGGGLVQAGGSLRLSCAASGRALSSSIMGWFRQAPGKEREFVAAITWSGGRAYYADVSDFEKGRFTISRDNGKNTVNLQMKGLKPEDTAVYYCAAALAIPVTMSPHEYPYWGQGTLVTVSS
B10: Nanobody 9A05 (VHH)
VHH: EVQLVESGGGFVQAGGSLRLSCAASRRTISSGTMGWFRQAPGKEREFVAAIRWSSGITFYPDSVEGRFTISGDNAKNTVSLQMNSLKPEDTAVYYCAADRSALRDPSFEVNYEYWGRGTLVTVSS
B11: Nanobody 13E02 (VHH)
VHH: EVQLVESGGGLVQAGGSLRLSCVASGSIFSIDAMGWYRQAPGKERELVASVTTGASPNYGDSVTGRFTASRDRAKNALYLQMNSLKPEDTAVYYCNLIMTIPGGSQIMYWGQGTLVTVSS
B12: Nanobody 9D09 (VHH)
VHH: EVQLVESGGGLVQAGGSLRLSCAASGLTFSSYTMGWFRQAPGQEREFVSAISWNTFTTYYVDSVKDRFTVSRDNAKNTLYLRMNSLKPEDTAVYYCAAAGGSPRQHEPYEYRVWGQGTLVTVSS

What follows are binders tested against T1, recombinant human ADAMTS5 (R&D Systems …) (assay: binding ELISA, periplasmic extract on coated human ADAMTS5).
Protocol: In a first step, periplasmic extracts were tested for binding to recombinant human ADAMTS5 by binding ELISA. In brief, recombinant human ADAMTS5 (R&D Systems, Minneapolis, US; cat #2198-AD) at a concentration of 1 μg/ml was coated on 384-well MaxiSorp plates (Nunc, Wiesbaden, Germany). Wells were blocked with a casein solution (1%). After addition of a 10-fold dilution of the periplasmic extracts, Nanobody binding was detected using a mouse anti-Flag-HRP conjugate (Sigma, St. Louis, US) and a subsequent enzymatic reaction in the presence of the substrate esTMB (3,3′,5,5′-tetramentylbenzidine) (SDT, Brussels, Belgium). Clones showing ELISA signals higher than the sum of the average signal of the irrelevant Nanobody controls and 3 times the standard deviation of the irrelevant Nanobody controls were considered to encode positive human ADAMTS5 binding Nanobodies.

Row | Binder | binding ELISA (OD 450 nm)
1 | B1 | 0.368 OD 450 nm
2 | B2 | 2.29 OD 450 nm
3 | B3 | 1.35 OD 450 nm
4 | B4 | 2.56 OD 450 nm
5 | B5 | 1.65 OD 450 nm
6 | B6 | 1.71 OD 450 nm
7 | B7 | 1.63 OD 450 nm
8 | B8 | 2.58 OD 450 nm

These binders were tested against T1, recombinant human ADAMTS5 (R&D Systems …) (assay: cell-based or functional assay).

Row | Binder | FRET assay % inh, periplasmic extract | FRET assay vi (U/min), periplasmic extract
9 | B1 | 90% | 2 U/min
10 | B9 | 111% | -2 U/min
11 | B10 | 113% | -3 U/min
12 | B11 | 99% | 0 U/min
13 | B2 | 93% | 2 U/min
14 | B3 | 90% | 2 U/min
15 | B4 | 8% | 19 U/min
16 | B5 | 91% | 2 U/min
17 | B6 | 55% | 10 U/min
18 | B7 | 90% | 2 U/min
19 | B8 | 111% | -2 U/min
20 | B12 | 102% | 0 U/min

Target: T1, recombinant human ADAMTS5 (R&D Systems …)
Assay: cell-based or functional assay
Remark: another data set of the same source

Row | Binder | Human AlphaLISA % inhibition | Human AlphaLISA IC50
21 | B1 | 100% | 3.6 nM
22 | B9 | 100% | 0.97 nM
23 | B10 | 100% | 0.32 nM
24 | B11 | 100% | 2.2 nM
25 | B2 | 100% | 12 nM
26 | B3 | 100% | 0.69 nM
27 | B5 | 99% | 4.3 nM
28 | B7 | 100% | 0.45 nM
29 | B8 | 100% | 0.22 nM
30 | B12 | 100% | 2.6 nM
